Biological target: T1, RNAP α subunit (αI) (T. thermophilus, UniProt Q5SHR6 1-315)
T1 sequence (looked up): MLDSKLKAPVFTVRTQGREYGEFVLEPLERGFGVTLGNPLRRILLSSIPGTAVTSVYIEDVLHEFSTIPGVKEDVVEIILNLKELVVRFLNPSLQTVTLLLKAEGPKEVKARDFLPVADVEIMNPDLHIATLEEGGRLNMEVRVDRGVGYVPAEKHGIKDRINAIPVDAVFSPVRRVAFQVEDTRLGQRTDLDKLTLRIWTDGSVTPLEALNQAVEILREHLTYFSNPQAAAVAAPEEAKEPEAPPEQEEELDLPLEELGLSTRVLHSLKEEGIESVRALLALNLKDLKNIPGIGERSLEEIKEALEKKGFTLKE
Test: cryo-EM structure

binding result: binds
B1: ribosomal protein S10 (NusE) (natural protein, T. thermophilus, UniProt Q5SHN7 1-105, looked up)
chain: MPKIRIKLRGFDHKTLDASAQKIVEAARRSGAQVSGPIPLPTRVRRFTVIRGPFKHKDSREHFELRTHNRLVDIINPNRKTIEQLMTLDLPTGVEIEIKTVGGGR

— doi:10.1101/2024.03.19.585385 (bioRxiv, 2024)
